{
  "source": "paper PMC6615252",
  "about": "“The binding affinity of PTPN13’s tandem PDZ2/3 domain is allosterically modulated” (BMC Molecular and Cell Biology, 2019)",
  "origin": "cited, not measured here",
  "molecules": {"B1": {"name": "PARG1: RhoGAP protein PARG1 (protein, UniProt Q52LW3 1-1261, looked up)", "Rho GTPase-activating protein …": "MIAHKQKKTKKKRAWASGQLSTDITTSEMGLKSLSSNSIFDPDYIKELVNDIRKFSHMLLYLKEAIFSDCFKEVIHIRLEELLRVLKSIMNKHQNLNSVDLQNAAEMLTAKVKAVNFTEVNEENKNDLFQEVFSSIETLAFTFGNILTNFLMGDVGNDSLLRLPVSRETKSFENVSVESVDSSSEKGNFSPLELDNVLLKNTDSIELALSYAKTWSKYTKNIVSWVEKKLNLELESTRNMVKLAEATRTNIGIQEFMPLQSLFTNALLNDIESSHLLQQTIAALQANKFVQPLLGRKNEMEKQRKEIKELWKQEQNKMLEAENALKKAKLLCMQRQDEYEKAKSSMFRAEEEHLSSSGGLAKNLNKQLEKKRRLEEEALQKVEEANELYKVCVTNVEERRNDLENTKREILAQLRTLVFQCDLTLKAVTVNLFHMQHLQAASLADSLQSLCDSAKLYDPGQEYSEFVKATNSTEEEKVDGNVNKHLNSSQPSGFGPANSLEDVVRLPDSSNKIEEDRCSNSADITGPSFIRSWTFGMFSDSESTGGSSESRSLDSESISPGDFHRKLPRTPSSGTMSSADDLDEREPPSPSETGPNSLGTFKKTLMSKAALTHKFRKLRSPTKCRDCEGIVVFQGVECEECLLVCHRKCLENLVIICGHQKLPGKIHLFGAEFTQVAKKEPDGIPFILKICASEIENRALCLQGIYRVCGNKIKTEKLCQALENGMHLVDISEFSSHDICDVLKLYLRQLPEPFILFRLYKEFIDLAKEIQHVNEEQETKKNSLEDKKWPNMCIEINRILLKSKDLLRQLPASNFNSLHFLIVHLKRVVDHAEENKMNSKNLGVIFGPSLIRPRPTTAPITISSLAEYSNQARLVEFLITYSQKIFDGSLQPQDVMCSIGVVDQGCFPKPLLSPEERDIERSMKSLFFSSKEDIHTSESESKIFERATSFEESERKQNALGKCDACLSDKAQLLLDQEAESASQKIEDGKTPKPLSLKSDRSTNNVERHTPRTKIRPVSLPVDRLLLASPPNERNGRNMGNVNLDKFCKNPAFEGVNRKDAATTVCSKFNGFDQQTLQKIQDKQYEQNSLTAKTTMIMPSALQEKGVTTSLQISGDHSINATQPSKPYAEPVRSVREASERRSSDSYPLAPVRAPRTLQPQHWTTFYKPHAPIISIRGNEEKPASPSAAVPPGTDHDPHGLVVKSMPDPDKASACPGQATGQPKEDSEELGLPDVNPMCQRPRLKRMQQFEDLEGEIPQFV"}},
  "system": "PDZ4 domain of PTPN13",
  "conditions": "ref [39]; cited from earlier work",
  "description": "This might also explain as to why the observed in vitro affinities of PTPN13 for APC and PRK2 are low in comparison to known examples for PDZ-ligand interactions.",
  "data": [
    {"molecule": "B1", "values": [
      {"measurement": "binding to PDZ4 domain", "result": "binds"}
    ]}
  ]
}
